Laboratory results: publication PMC4198189, “Human Valacyclovir Hydrolase/Biphenyl Hydrolase-Like Protein Is a Highly Efficient Homocysteine Thiolactonase” (PLoS ONE, 2014)

Substrate: N[C@H]1CCSC1=O
Assay: purified protein
Type: biochemical, Homo sapiens
Conditions: Dulbecco's PBS with 0.32 mM DTNB, 37 °C, partially purified native enzyme

B1: human liver BPHL (purified human liver HCTLase) (Homo sapiens) (protein)
chain: SVTSAKVAVNGVQLHYQQTGEGDHAVLLLPGMLGSGETDFGPQLKNLNKKLFTVVAWDPRGYGHSRPPDRDFPADFFERDAKDAVDLMKALKFKKVSLLGWSDGGITALIAAAKYPSYIHKMVIWGANAYVTDEDSMIYEGIRDVSKWSERTRKPLEALYGYDYFARTCEKWVDGIRQFKHLPDGNICRHLLPRVQCPALIVHGEKDPLVPRFHADFIHKHVKGSRLHLMPEGKHNLHLRFADEFNKLAEDFLQ
notes: native, partially purified from pooled human liver (five donors); about 30 kDa by gel filtration; identified by MS, with ACAA1 and hydroxyacyl-CoA dehydrogenase bands co-purifying
Q: For B1, which Km is on record?
A: 3.92 mM
